Non-standard residues stand in square brackets, D forms with d. No end group written: not given here. Hyp = O=C(O)[C@@H]1C[C@@H](O)CN1
Columns and labels:
[1] = Stability of liquid pharmaceutical forms (peptide 0.2 %, benzalkonium chloride 0.01 %, water) during storage; single and total impurities; format: physicochemical
Source text: Investigations of the Stability of Pharmaceutical Forms Containing Peptides Having the Property of Stimulating the Genital and Sexual Functions
This experiment investigated the stability of compositions containing peptides according to the invention. The results of the investigations are illustrated by the example of several peptides according to the invention containing hydroxyproline, in particular Thr-Lys-Hyp […], Thr-Lys-Hyp-Arg-Hyp (SEQ ID NO: 13), Thr-Lys-Hyp-Arg-Hyp-Phe and Thr-Lys-Hyp-Arg-Hyp-Gly-Hyp (SEQ ID NO: 14).
The peptides described in RU2507212 were also obtained, in particular Thr-Lys-Pro, Thr-Lys-Pro-Arg-Pro (SEQ ID NO: 6), Thr-Lys-Pro-Arg-Pro-Phe (SEQ ID NO: 7) and Thr-Lys-Pro-Arg-Pro-Gly-Pro (SEQ ID NO: 1).
From the compounds obtained, a liquid pharmaceutical form (a solution) was prepared, including the peptide and the preservative benzalkonium chloride with the following ratio of components: 0.2 and 0.01 mass %, respectively, water the rest. Samples were placed in storage at two temperature regimes, namely, +4° C. and +25° C. Investigation of the stability of the peptides was carried out after 1, 3, 6, 12, and 24 months of storage. In the investigation of the samples for stability, the quantity of single impurities and the total quantity of impurities were evaluated, testifying to the degradation of the peptides. The pharmaceutical requirements of the company for impurities are: any single impurity, not more than 1.5%; total content of impurities, not more than 3.0%. If the content of impurities exceeded the above indicated values, the pharmaceutical form was deemed to have failed the test for stability.

female rats = test: Efficacy in vivo on preclinical model (Lordoz test): proceptive behavior of ovarioectomized, hormonally stimulated females; settings: 100 mcg/rat, progesterone 0.5 mg/rat
Method: Investigation of the Efficacy of the Peptides of the Invention as a Means of Stimulating the Genital and Sexual Functions
In order to confirm the efficacy as a means of stimulating the genital and sexual functions, peptides according to the invention were synthesized, in particular the tripeptide Thr-Lys-Hyp, the pentapeptide Thr-Lys-Hyp-Arg-Hyp (SEQ ID NO: 12), and the hexapeptide Thr-Lys-Hyp-Arg-Hyp-Phe (SEQ ID NO: 13), and tests were performed as to the efficacy in vivo on the relevant preclinical model (Lordoz test). Furthermore, the efficacy of the group of peptides Thr-Lys-Pro, Thr-Lys-Pro-Arg-Pro (SEQ ID NO: 6), and Thr-Lys-Pro-Arg-Pro-Phe (SEQ ID NO: 7) was also investigated.
The efficacy of the aforementioned groups of peptides was investigated in a dose of 100 mcg/rat with respect to the sexual behavior of female rats. The sexual behavior was registered over the course of 0-16 days in ovarioectomized, hormonally stimulated females in the case of direct contact with sexually active males and in the case when no such contact was possible. […] The results testify to an increase in sexual motivation under the action of the peptides Thr-Lys-Hyp, Thr-Lys-Hyp-Arg-Hyp (SEQ ID NO: 12), and Thr-Lys-Hyp-Arg-Hyp-Phe (SEQ ID NO: 13).

[2] = stored for 1 month at +4° C., solution 0.2 mass % peptide, 0.01 mass % benzalkonium chloride
[3] = stored for 1 month at +25° C., solution 0.2 mass % peptide, 0.01 mass % benzalkonium chloride
[4] = stored for 12 months at +25° C.
[5] = stored for 24 months at +25° C.

Substance | Single impurities [1, 2] [%] | Total impurities [1, 2] [%] | Single impurities [1, 3] [%] | Total impurities [1, 3] [%] | Single impurities ([1]; stored for 3 months at +4° C.) [%] | Total impurities ([1]; stored for 3 months at +4° C.) [%] | Single impurities ([1]; stored for 3 months at +25° C.) [%] | Total impurities ([1]; stored for 3 months at +25° C.) [%] | Single impurities ([1]; stored for 6 months at +4° C.) [%] | Total impurities ([1]; stored for 6 months at +4° C.) [%] | Single impurities ([1]; stored for 6 months at +25° C.) [%] | Total impurities ([1]; stored for 6 months at +25° C.) [%] | Single impurities ([1]; stored for 12 months at +4° C.) [%] | Total impurities ([1]; stored for 12 months at +4° C.) [%] | Single impurities ([1]; stored for 24 months at +4° C.) [%] | Total impurities ([1]; stored for 24 months at +4° C.) | Number of proceptive behavior acts (female rats; day 0 of giving the drug) | Number of proceptive behavior acts (female rats; day 5 of giving the drug) | Number of proceptive behavior acts (female rats; day 11 of giving the drug) | Number of proceptive behavior acts (female rats; day 16 of giving the drug) | other results
Thr-Lys-Hyp-Arg-Hyp (TK[Hyp]R[Hyp]) [pentapeptide of the invention containing hydroxyproline] | 0.03 | 0.09 | 0.046 | 0.14 | 0.03 | 0.09 | 0.047 | 0.15 | 0.04 | 0.1 | 0.1 | 0.7 | 0.07 | 0.2 | 0.1 | 0.7% | 13 ± 4 | 38 ± 4 | 36 ± 4 | 36 ± 6 | Single impurities [1, 4]: 0.2%; Total impurities [1, 4]: 0.9%; Single impurities [1, 5]: 0.9%; Total impurities [1, 5]: 1.2%
Thr-Lys-Hyp-Arg-Hyp-Gly-Hyp (TK[Hyp]R[Hyp]G[Hyp]) [peptide according to the invention containing hydroxyproline] | 0.049 | 0.12 | 0.069 | 0.14 | 0.05 | 0.12 | 0.07 | 0.5 | 0.06 | 0.14 | 0.09 | 0.9 | 0.09 | 0.3 | 0.1 | 1.1% | – | – | – | – | Single impurities [1, 4]: 0.3%; Total impurities [1, 4]: 1.1%; Single impurities [1, 5]: 1.2%; Total impurities [1, 5]: 2.6%
Thr-Lys-Hyp-Arg-Hyp-Phe (TK[Hyp]R[Hyp]F) [hexapeptide of the invention containing hydroxyproline] | 0.067 | 0.15 | 0.032 | 0.09 | 0.068 | 0.15 | 0.033 | 0.09 | 0.08 | 0.2 | 0.09 | 0.6 | 0.1 | 0.3 | 0.9 | 1.9% | 14 ± 4 | 24 ± 4 | 23 ± 4 | 24 ± 4 | Single impurities [1, 4]: 0.4%; Total impurities [1, 4]: 0.8%; Single impurities [1, 5]: 1.3%; Total impurities [1, 5]: 2.7%
Thr-Lys-Pro [reference compound] | 0.051 | 0.13 | 0.06 | 0.1 | 0.053 | 0.135 | 0.13 | 0.25 | 0.3 | 0.9 | 1.7 | 3.1 | 0.9 | 1.7 | 1.2 | 2.2% | 14 ± 4 | 15 ± 4 | 20 ± 4 | 28 ± 4 | –
Thr-Lys-Pro-Arg-Pro (TKPRP; not fully specified; printed as Thr-Lys-Pro-Arg-Pro) [pentapeptide described in RU2507212, comparison peptide, reference compound] | 0.042 | 0.09 | 0.067 | 0.54 | 0.042 | 0.93 | 0.19 | 0.9 | 0.09 | 1 | 1.4 | 3.0 | 0.8 | 1.5 | 1.1 | 1.9% | 12 ± 4 | 15 ± 4 | 24 ± 4 | 36 ± 6 | Single impurities [1, 4]: 4%; Total impurities [1, 4]: 6%
Thr-Lys-Pro-Arg-Pro-Gly-Pro (TKPRPGP; not fully specified; printed as Thr-Lys-Pro-Arg-Pro-Gly-Pro) [heptopeptide “Selank”, a synthetic analogue of the endogenous peptide tuftsin, reference compound] | 0.05 | 0.17 | 0.065 | 0.13 | 0.07 | 0.2 | 0.9 | 1.2 | 0.8 | 1.4 | 1.7 | 3.1 | 1 | 1.7 | 2 | 3.7% | – | – | – | – | –
Thr-Lys-Pro-Arg-Pro-Phe (TKPRPF; not fully specified; printed as Thr-Lys-Pro-Arg-Pro-Phe) [hexapeptide described in RU2507212, comparison peptide, reference compound] | 0.054 | 0.17 | 0.11 | 0.19 | 0.09 | 0.18 | 0.9 | 1.1 | 0.5 | 1.1 | 1.9 | 3.5 | 0.9 | 1.3 | 1.6 | 2,9% | 14 ± 4 | 16 ± 4 | 19 ± 4 | 26 ± 4 | –
Thr-Lys-[Hyp] | 0.034 | 0.09 | 0.052 | 0.11 | 0.035 | 0.11 | 0.052 | 0.9 | 0.036 | 0.2 | 0.2 | 1 | 0.09 | 0.3 | 0.1 | 0.9% | 12 ± 4 | 25 ± 4 | 24 ± 4 | 26 ± 4 | Single impurities [1, 4]: 0.3%; Total impurities [1, 4]: 1.2%; Single impurities [1, 5]: 0.8%; Total impurities [1, 5]: 1.8%

Reference: US10836794B2, “Group of peptides for treating female sexual dysfunction” (“IVIX” Ltd., priority 2016, dated 2020)
